# B1: Hairpin Ribozyme (parent)
# chain: GUCCUCUUUCACGUGCGCGUGAAAGAGAGAAGUGAACCAGAGAAACACACGUUGUGGUAUAUUACCUGGUA
# Variants of: B1
# Assay: self-cleavage, relative activity (ratio to wild type); higher = more cleavage; co-transcriptional
row,Variant,self-cleavage
1,GUCCUCUUUCACGUGCGCGUGAAAGAGAGAAGUGAACCAGAGAAACACCCGUUGUGGUAUAUUAGCUGGUA,0.168
2,GUCCUCUUUCACGUGCGCGUGAAAGAGAGAAGUGAACCAGAGAAACACCCGUUGUGGUAUAUUAACUGGUA,0.225
3,GUCCUCUUUCACGUGCGCGUGAAAGAGAGAAGUGAACCAGAGAAACAGUCGUUGUGGUAUAUUACCUGGUA,0.104
4,GUCCUCUUUCACGUGCGCGUGAAAGAGAGAAGUGAACCAGAGAAACAGGCGUUGUGGUAUAUUACCUGGUA,0.123
5,GUCCUCUUUCACGUGCGCGUGAAAGAGAGAAGUGAACCAGAGAAACAAACGUUGUGGUAUAGUACCUGGUA,0.0864
6,GUCCUCUUUCACGUGCGCGUGAAAGAGAGAAGUGAACCAGAGAAACAGACGUUGUGGUAUAUCACCUGGUA,0.0816
7,GUCCUCUUUCACGUGCGCGUGAAAGAGAGAAGUGAACCAGAGAAACAUACGUUGUGGUAUAUUACUUGGUA,0.194
8,GUCCUCUUUCACGUGCGCGUGAAAGAGAGAAGUGAACCAGAGAAACAUACGUUGUGGUAUAUUACGUGGUA,0.138
9,GUCCUCUUUCACGUGCGCGUGAAAGAGAGAAGUGAACCAGAGAAACAUACGUUGUGGUAUUUUACCUGGUA,0.151
10,GUCCUCUUUCACGUGCGCGUGAAAGAGAGAAGUGAACCAGAGAAACAGACGUUGUGGUAAAUUACCUGGUA,0.121
11,GUCCUCUUUCACGUGCGCGUGAAAGAGAGAAGUGAACCAGAGAAACAGACGUUGUGGUAGAUUACCUGGUA,0.108
12,GUCCUCUUUCACGUGCGCGUGAAAGAGAGAAGUGAACCAGAGAAACAUACGUUGCGGUAUAUUACCUGGUA,0.132
13,GUCCUCUUUCACGUGCGCGUGAAAGAGAGAAGUGAACCAGAGAAACAGACGUAGUGGUAUAUUACCUGGUA,0.101
14,GUCCUCUUUCACGUGCGCGUGAAAGAGAGAAGUGAACCAGAGAAACAGACGUCGUGGUAUAUUACCUGGUA,0.206
15,GUCCUCUUUCACGUGCGCGUGAAAGAGAGAAGUGAACCAGAGAAACAGACGUUGUGGUAUAUUACCUGGCA,0.302
16,GUCCUCUUUCACGUGCGCGUGAAAGAGAGAAGUGAACCAGAGAAACAGACGUUGUGGCAUAUUACCUGGUA,0.143
17,GUCCUCUUUCACGUGCGCGUGAAAGAGAGAAGUGAACCAGAGAAACAGACGUUGUGCUAUAUUACCUGGUA,0.169
18,GUCCUCUUUCACGUGCGCGUGAAAGAGAGAAGUGAACCAGAGAAACACCCGUUGUGGUAUAUUACUUGGUA,0.183
19,GUCCUCUUUCACGUGCGCGUGAAAGAGAGAAGUGAACCAGAGAAACACCCGUUGUGGUAUAUUACGUGGUA,0.301
20,GUCCUCUUUCACGUGCGCGUGAAAGAGAGAAGUGAACCAGAGAAACAUACGUUGUGGCAUAUUACCUGGUA,0.333
21,GUCCUCUUUCACGUGCGCGUGAAAGAGAGAAGUGAACCAGAGAAACAGACGUUGUGGUCUAUUACCUGGUA,0.119
22,GUCCUCUUUCACGUGCGCGUGAAAGAGAGAAGUGAACCAGAGAAACACCCGCUGUGGUAUAUUACCUGGUA,0.16
23,GUCCUCUUUCACGUGCGCGUGAAAGAGAGAAGUGAACCAGAGAAACAAACGUUGUGGGAUAUUACCUGGUA,0.165
24,GUCCUCUUUCACGUGCGCGUGAAAGAGAGAAGUGAACCAGAGAAACAAACGUUGUGGAAUAUUACCUGGUA,0.0644
25,GUCCUCUUUCACGUGCGCGUGAAAGAGAGAAGUGAACCAGAGAAACAAACGUUGUGGUAUAUUACCGGGUA,0.122
26,GUCCUCUUUCACGUGCGCGUGAAAGAGAGAAGUGAACCAGAGAAACAUACGUCGUGGUAUAUUACCUGGUA,0.233

row,Variant,self-cleavage
1,GUCCUCUUUCACGUGCGCGUGAAAGAGAGAAGUGAACCAGAGAAACACCCGUUGUGGCAUAUUACCUGGUA,0.316
2,GUCCUCUUUCACGUGCGCGUGAAAGAGAGAAGUGAACCAGAGAAACACCCGUUGUGGGAUAUUACCUGGUA,0.286
3,GUCCUCUUUCACGUGCGCGUGAAAGAGAGAAGUGAACCAGAGAAACACCCAUUGUGGUAUAUUACCUGGUA,0.0757
4,GUCCUCUUUCACGUGCGCGUGAAAGAGAGAAGUGAACCAGAGAAACACCCGUUGUGGUUUAUUACCUGGUA,0.287
5,GUCCUCUUUCACGUGCGCGUGAAAGAGAGAAGUGAACCAGAGAAACACCCGUUGGGGUAUAUUACCUGGUA,0.343
6,GUCCUCUUUCACGUGCGCGUGAAAGAGAGAAGUGAACCAGAGAAACACCCGUUGCGGUAUAUUACCUGGUA,0.273
7,GUCCUCUUUCACGUGCGCGUGAAAGAGAGAAGUGAACCAGAGAAACAUACGUUGUGGUAUAUAACCUGGUA,0.173
8,GUCCUCUUUCACGUGCGCGUGAAAGAGAGAAGUGAACCAGAGAAACAUACAUUGUGGUAUAUUACCUGGUA,0.082
9,GUCCUCUUUCACGUGCGCGUGAAAGAGAGAAGUGAACCAGAGAAACAUACCUUGUGGUAUAUUACCUGGUA,0.0415
10,GUCCUCUUUCACGUGCGCGUGAAAGAGAGAAGUGAACCAGAGAAACAUACGUUUUGGUAUAUUACCUGGUA,0.203
11,GUCCUCUUUCACGUGCGCGUGAAAGAGAGAAGUGAACCAGAGAAACAUACGUUAUGGUAUAUUACCUGGUA,0.163
12,GUCCUCUUUCACGUGCGCGUGAAAGAGAGAAGUGAACCAGAGAAACAUACGUUCUGGUAUAUUACCUGGUA,0.129
13,GUCCUCUUUCACGUGCGCGUGAAAGAGAGAAGUGAACCAGAGAAACAGACGUUGUGGUAUAUUACCUGCUA,0.0597
14,GUCCUCUUUCACGUGCGCGUGAAAGAGAGAAGUGAACCAGAGAAACAGACGUUGUGGUAUAUUACCUGUUA,0.0941
15,GUCCUCUUUCACGUGCGCGUGAAAGAGAGAAGUGAACCAGAGAAACAGACGUUGUGGUAUAUUACCUGAUA,0.224
16,GUCCUCUUUCACGUGCGCGUGAAAGAGAGAAGUGAACCAGAGAAACAUAUGUUGUGGUAUAUUACCUGGUA,0.0683
17,GUCCUCUUUCACGUGCGCGUGAAAGAGAGAAGUGAACCAGAGAAACAUAAGUUGUGGUAUAUUACCUGGUA,0.0417
18,GUCCUCUUUCACGUGCGCGUGAAAGAGAGAAGUGAACCAGAGAAACAUAGGUUGUGGUAUAUUACCUGGUA,0.109
19,GUCCUCUUUCACGUGCGCGUGAAAGAGAGAAGUGAACCAGAGAAACACCCGUUGUGGUAUAUUUCCUGGUA,0.178
20,GUCCUCUUUCACGUGCGCGUGAAAGAGAGAAGUGAACCAGAGAAACACCCGUUGUAGUAUAUUACCUGGUA,0.17
21,GUCCUCUUUCACGUGCGCGUGAAAGAGAGAAGUGAACCAGAGAAACACCCGUUGUGCUAUAUUACCUGGUA,0.121
22,GUCCUCUUUCACGUGCGCGUGAAAGAGAGAAGUGAACCAGAGAAACAGACGUUAUGGUAUAUUACCUGGUA,0.172
23,GUCCUCUUUCACGUGCGCGUGAAAGAGAGAAGUGAACCAGAGAAACAGACGUUCUGGUAUAUUACCUGGUA,0.189
24,GUCCUCUUUCACGUGCGCGUGAAAGAGAGAAGUGAACCAGAGAAACAUACGUUGUGGUAGAUUACCUGGUA,0.125
25,GUCCUCUUUCACGUGCGCGUGAAAGAGAGAAGUGAACCAGAGAAACAUACGUUGUGGUACAUUACCUGGUA,0.389
26,GUCCUCUUUCACGUGCGCGUGAAAGAGAGAAGUGAACCAGAGAAACAAACGUUGUGGUAUAUUACCUGGCA,0.27

row,Variant,self-cleavage
1,GUCCUCUUUCACGUGCGCGUGAAAGAGAGAAGUGAACCAGAGAAACAGACGUUGUGGUAUAUUACCAGGUA,0.259
2,GUCCUCUUUCACGUGCGCGUGAAAGAGAGAAGUGAACCAGAGAAACAGACGUUGUGGUAUAUUACCCGGUA,0.117
3,GUCCUCUUUCACGUGCGCGUGAAAGAGAGAAGUGAACCAGAGAAACAUACGGUGUGGUAUAUUACCUGGUA,0.311
4,GUCCUCUUUCACGUGCGCGUGAAAGAGAGAAGUGAACCAGAGAAACAUACGAUGUGGUAUAUUACCUGGUA,0.138
5,GUCCUCUUUCACGUGCGCGUGAAAGAGAGAAGUGAACCAGAGAAACAGACGUUGUGGUAUAUUACGUGGUA,0.105
6,GUCCUCUUUCACGUGCGCGUGAAAGAGAGAAGUGAACCAGAGAAACACCGGUUGUGGUAUAUUACCUGGUA,0.129
7,GUCCUCUUUCACGUGCGCGUGAAAGAGAGAAGUGAACCAGAGAAACAGACGUUGUGGUAUUUUACCUGGUA,0.0929
8,GUCCUCUUUCACGUGCGCGUGAAAGAGAGAAGUGAACCAGAGAAACAUACGUUGUGGUAUAUUAACUGGUA,0.086
9,GUCCUCUUUCACGUGCGCGUGAAAGAGAGAAGUGAACCAGAGAAACAUACGUUGUGGUAUAUUAGCUGGUA,0.0909
10,GUCCUCUUUCACGUGCGCGUGAAAGAGAGAAGUGAACCAGAGAAACACCCGUUGUGGUAUAUUACCUGGUA,0.161
11,GUCCUCUUUCACGUGCGCGUGAAAGAGAGAAGUGAACCAGAGAAACAUACGUUGUAGUAUAUUACCUGGUA,0.222
12,GUCCUCUUUCACGUGCGCGUGAAAGAGAGAAGUGAACCAGAGAAACACCCGUUCUGGUAUAUUACCUGGUA,0.187
13,GUCCUCUUUCACGUGCGCGUGAAAGAGAGAAGUGAACCAGAGAAACAAACGUUGUGGUAUAUGACCUGGUA,0.229
14,GUCCUCUUUCACGUGCGCGUGAAAGAGAGAAGUGAACCAGAGAAACAAACGUUGUGGUAUAUAACCUGGUA,0.174
15,GUCCUCUUUCACGUGCGCGUGAAAGAGAGAAGUGAACCAGAGAAACAUCCGUUGUGGUAUAUUACCUGGUA,0.225
16,GUCCUCUUUCACGUGCGCGUGAAAGAGAGAAGUGAACCAGAGAAACAGACGUUGUGGUAUAUUCCCUGGUA,0.242
17,GUCCUCUUUCACGUGCGCGUGAAAGAGAGAAGUGAACCAGAGAAACAUACGUUGUGUUAUAUUACCUGGUA,0.204
18,GUCCUCUUUCACGUGCGCGUGAAAGAGAGAAGUGAACCAGAGAAACAUACGUUGUGCUAUAUUACCUGGUA,0.163
19,GUCCUCUUUCACGUGCGCGUGAAAGAGAGAAGUGAACCAGAGAAACACCCGUUGUGGUAUAUUACCUGGUU,0.27
20,GUCCUCUUUCACGUGCGCGUGAAAGAGAGAAGUGAACCAGAGAAACAUACGUUGUGGUAUAUUACCUGUUA,0.182
21,GUCCUCUUUCACGUGCGCGUGAAAGAGAGAAGUGAACCAGAGAAACAUACGUUGUGGUAUAUUACCUGCUA,0.124
22,GUCCUCUUUCACGUGCGCGUGAAAGAGAGAAGUGAACCAGAGAAACAAACGUUGUGGUAAAUUACCUGGUA,0.134
23,GUCCUCUUUCACGUGCGCGUGAAAGAGAGAAGUGAACCAGAGAAACAGACGGUGUGGUAUAUUACCUGGUA,0.225
24,GUCCUCUUUCACGUGCGCGUGAAAGAGAGAAGUGAACCAGAGAAACACCCGUUGUGGUAUUUUACCUGGUA,0.104

# Source: the RNAGym collection of RNA variant scans (doi:10.7554/elife.80360)
